The target of test [1] is VP16 transcription activation domain fused to aa 133-239 of c-Fos, encoded by PMVP_Fos (human) (UniProt P01100). Put plainly: cell-based or functional assay.
For test [2], the target named is VP16 activation domain alone, encoded by the empty prey vector PMVP (UniProt P06492). Put plainly: cell-based or functional assay.
Test [3] deals with T1, JA domain (aa 1-223) of c-Jun fused with GFP, encoded by PMNGFP_JA (human, UniProt P05412 1-223; P42212 1-238 = GFP).
T1 construct: Expressed in HEK293T cells
Put plainly: in vivo binding screening: membrane localization of the GFP fusion in HEK293T cells, fluorescence microscopy.

The target in test [4] is T2, JZ domain of c-Jun fused with GFP, encoded by PMNGFP_JZ (human, UniProt P05412 249-331; P42212 1-238 = GFP).
T2 construct: Expressed in HEK293T cells; also called bait in the second screening
The test is described as above.

Chain of VP16 activation domain alone, encoded by the empty prey vector PMVP (P06492 411-456 limits assumed): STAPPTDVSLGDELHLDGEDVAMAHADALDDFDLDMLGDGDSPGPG

As to “Gal4 DNA-binding domain alone, encoded by the empty bait vector PMBD (from UniProt P04386 1-147)”, in test [1], the events with GFP 30-fold or more above the background (FACS) (event in 10000) was < 1.

For the molecule “Gal4 DNA-binding domain fused to the JZ domain (aa 249-331) of c-Jun, encoded by PMBD_JZ (from UniProt P04386 1-147; P05412 249-331)”, the events with GFP 30-fold or more above the background (FACS) (event in 10000) in test [2] was < 1.

B1: Fyn_Fos peptide: Fyn myristoylation (membrane-localizing) signal fused to c-Fos aa 133-239, expressed from the 3-primer PCR product (other, UniProt P06241 1-10, looked up)
chain: MGCVQCKDKESPEEEEKRRIRRERNKMAAAKCRNRRRELTDTLQAETDQLEDEKSALQTEIANLLKEKEKLEFILAAHRPACKIPDDLGFPEEMSVASLDLTGGLPEVATPESEEAF
modifications: myristoylation signal at the N-terminus (membrane-localizing signal)
notes: domain: myristoylation signal;range 133-239; Expressed in HEK293T cells
Take B1: the binding result in test [3] is reported as “no binding”.

B2: Fyn_JA: Fyn membrane-localizing signal fused to the JA domain of c-Jun (other, UniProt P06241 1-10, looked up)
chain: MGCVQCKDKEMTAKMETTFYDDALNASFLPSESGPYGYSNPKILKQSMTLNLADPVGSLKPHLRAKNSDLLTSPDVGLLKLASPELERLIIQSSNGHITTTPTPTQFLCPKNVTDEQEGFAEGFVRALAELHSQNTLPSVTSAAQPVNGAGMVAPAVASVAGGSGSGGFSASLHSEPPVYANLSNFNPGALSSGGGAPSYGAAGLAFPAQPQQQQQPPHHLPQQMPVQHPRLQ
modifications: myristoylation signal at the N-terminus (membrane-localizing signal)
notes: domain: myristoylation signal;range 1-223
Turning to B2, the binding result in test [4] is listed as “no binding”.

For the origin of these results see patent US20030211523A1 (published 2003).
